Series [1] addresses T1, CsRecQ catalytic core S245A (Cronobacter sakazakii, UniProt A7MQK9 1-521, S245A). Description: X-ray crystallography; discontinuous density in helicase/winged-helix cleft; 20 mM Tris-HCl pH 8.0, 100 mM NaCl, 1 mM MgCl2, 1 mM 2-mercaptoethanol, 0.1 mg/mL BSA, 4% glycerol; 5 nM DNA, 30 min at room temperature, read at 25 C (G4 folded in 10 mM Tris-HCl pH 8.0, 100 mM KCl). As to conditions: protein: recombinant; tags: N-terminal His tag removed (thrombin); antiparallel G4 with 12 nt 3' ssDNA tail; resolved (unwound) in 6CRM.

Another series deals with CsRecQ catalytic core (Cronobacter sakazakii, UniProt A7MQK9 1-521). Description: fluorescence anisotropy; apparent Kd; 1 mM Mg2+; 20 mM Tris-HCl pH 8.0, 100 mM NaCl, 1 mM MgCl2, 1 mM 2-mercaptoethanol, 0.1 mg/mL BSA, 4% glycerol; 5 nM DNA, 30 min at room temperature, read at 25 C (G4 folded in 10 mM Tris-HCl pH 8.0, 100 mM KCl). The conditions noted are these: protein: recombinant, tags: N-terminal His tag removed (thrombin). (Polarisation of emitted light reports the rotation of a fluorescent probe.)

For a further series, the target named is EcRecQ catalytic core (Escherichia coli, UniProt P15043 1-523). Described as above. As to conditions: protein: recombinant, tags: N-terminal His tag removed (thrombin).
Series [2] addresses EcRecQ catalytic core D312A (Escherichia coli, UniProt P15043 1-523, D312A). Described as above. As to conditions: protein: recombinant, tags: N-terminal His tag removed (thrombin).
The target of series [3] is T1, CsRecQ catalytic core S245A. Description: fluorescence anisotropy; 1 mM Mg2+; Kd not determined (anisotropy decreased with time); 20 mM Tris-HCl pH 8.0, 100 mM NaCl, 1 mM MgCl2, 1 mM 2-mercaptoethanol, 0.1 mg/mL BSA, 4% glycerol; 5 nM DNA, 30 min at room temperature, read at 25 C (G4 folded in 10 mM Tris-HCl pH 8.0, 100 mM KCl). The conditions noted are these: protein: recombinant; tags: N-terminal His tag removed (thrombin); label: 3' FAM; intramolecular G4 (folded in 100 mM KCl) with 12 nt 3' ssDNA tail.

Series [4] has as its target T2, EcRecQ catalytic core S245A (Escherichia coli, UniProt P15043 1-523, S245A). Described as above. As to conditions: protein: recombinant; tags: N-terminal His tag removed (thrombin); label: 3' FAM; intramolecular G4 (folded in 100 mM KCl) with 12 nt 3' ssDNA tail.
For series [5], the target named is T1, CsRecQ catalytic core S245A. The series is described as follows: fluorescence anisotropy; apparent Kd; 1 mM Mg2+; 20 mM Tris-HCl pH 8.0, 100 mM NaCl, 1 mM MgCl2, 1 mM 2-mercaptoethanol, 0.1 mg/mL BSA, 4% glycerol; 5 nM DNA, 30 min at room temperature, read at 25 C (G4 folded in 10 mM Tris-HCl pH 8.0, 100 mM KCl). As to conditions: protein: recombinant; tags: N-terminal His tag removed (thrombin); label: 3' FAM on Duplex 1; 18 bp, 3' overhang 12 nt on strand 1.

For series [6], the target named is T2, EcRecQ catalytic core S245A. The description is as above. As to conditions: protein: recombinant; tags: N-terminal His tag removed (thrombin); label: 3' FAM on Duplex 1; 18 bp, 3' overhang 12 nt on strand 1.
The mark [7] stands for this setting: label: 3' FAM, intramolecular G4 (folded in 100 mM KCl) with 12 nt 3' ssDNA tail.
[8] abbreviates: label: 3' FAM on Duplex 1, 18 bp, 3' overhang 12 nt on strand 1.

B1: G4 DNA (structured_DNA)
DNA: TTAGGGTTAGGGTTAGGGTTAGGGTCGGTGCCTTACT
For the molecule B1, in series [1], the binding result is on record as “binds”.

B2: F-G4 (structured_DNA)
DNA: TTAGGGTTAGGGTTAGGGTTAGGGTCGGTGCCTTACT
Consider B2, for which the Kd was 4700 ± 900 nM with CsRecQ catalytic core (setting [7]), 1000 ± 100 nM with EcRecQ catalytic core (setting [7]) and 330 ± 40 nM in series [2] (setting [7]). For the same molecule, the binding result in series [3] and in series [4] was “binds” in each case.

B3: Duplex 1/Duplex 2 (dsDNA)
DNA 1: GCGTGGGTAATTGTGCTTCAATGGACTGAC
DNA 2: AAGCACAATTACCCACGC
On to B3, for which the Kd came to 2900 ± 300 nM in the series with CsRecQ catalytic core (setting [8]); 4000 ± 1600 nM in series [5]; 2200 ± 200 nM in series [6]; 950 ± 60 nM with EcRecQ catalytic core (setting [8]); 280 ± 20 nM in series [2] (setting [8]).
